Results reported in publication PMC12016715.

Molecular target: SARS-CoV-2 spike (S)-trimer protein (SARS-CoV-2) (UniProt P0DTC2)
Test: SEC

“SARS-CoV-2 spike (S)-trimer protein (from UniProt P0DTC2 16-1209) (domain or fragment)” gave a stoichiometry N of 3.
